Measurements from paper PMC5023229, “Role of NAD^+-Dependent Malate Dehydrogenase in the Metabolism of Methylomicrobium alcaliphilum 20Z and Methylosinus trichosporium OB3b” (Microorganisms, 2015).

B1: MDH from M. trichosporium OB3b (MDH-OB3b) (Methylosinus trichosporium OB3b) (protein)
chain: MARKKIALIGAGNIGGTLAHLIGLKELGDIVLFDIAAGVPQGKALDLAQSSPVSGFDATISGADDYSAIAGADVVIVTAGVPRQPGMSRDDLLSVNLGVVSKVGAGIKTYAPDAFVICITNPLDVMVWALQKCSGLPPAKVVGMAGVLDSARFRYFLAEELQVSVEDVSAFVLGGHGDDMVPSVRYSTVAGVPLPDLVGMGWITQAKIDAIVERTRKGGGEIVSLLKTGSAYYAPAASAIAMAESYLKDKRRVLPCAAHLSGQYGVSDLYVGVPVVIGANGVERIVEISLDSAERQMFDKSVASVRTLIAASKALDPSFA
notes: full-length, C-terminal His6 (pET22b NdeI/XhoI), E. coli BL21 (DE3), Ni-NTA; homotetramer 140 kDa; forward primer encodes (M)MARKKIA; LDH-like MDH, group III
B2: MDH from M. alcaliphilum 20Z (MDH-20Z) (Methylotuvimicrobium alcaliphilum 20Z) (protein)
chain: MKTPVKIAVTGAAGQISYSLLFRLASGELLGPDQPMIFHLLETPQALALGALNGVVMELNDCAYPLLHKIVTTDDPDVAFKDVDYAFLIGASPRKPGMERKDLLAINAQIFSVQGQALSKVASRDVKVLVTGNPANTNALIAISNAPDLRPENFSAMMMLDHKRATFQLADKCGVLSNDIKNIIIWGNHSAGQYPDLHHAKVKGQDALSLVEWDWFVDKFIPTVQQRGAVVIQAVGRSSAASAANAALNLMRNWVFGTDEGNWISMAVPSDGSYGIEKDLVYSFPVEIKNGEISIVQGLEISDFSREKMRKSEAELKEEREAVKHLL
notes: full-length, C-terminal His6 (pET22b NdeI/XhoI), E. coli BL21 (DE3), Ni-NTA; homodimer 70 kDa

Columns and labels:
Assay in all cases: purified protein
[1] = substrate: O=C(O)C[C@H](O)C(=O)O; conditions: malate oxidation, co-substrate NAD+
[2] = substrate: NC(=O)C1=CN([C@@H]2O[C@H](COP(=O)(O)OP(=O)(O)OC[C@H]3O[C@@H](n4cnc5c(N)ncnc54)[C@H](O)[C@@H]3O)[C@@H](O)[C@H]2O)C=CC1; assay type: biochemical, Methylosinus trichosporium; conditions: oxaloacetate reduction, co-substrate oxaloacetate, pH 9.5, 30 °C, varied: cofactor
[3] = substrate: NC(=O)c1ccc[n+]([C@@H]2O[C@H](COP(=O)(O)OP(=O)(O)OC[C@H]3O[C@@H](n4cnc5c(N)ncnc54)[C@H](O)[C@@H]3O)[C@@H](O)[C@H]2O)c1; assay type: biochemical, Methylosinus trichosporium; conditions: malate oxidation, co-substrate malate, pH 9.5, 30 °C, varied: cofactor
[4] = substrate: O=C(O)CC(=O)C(=O)O; assay type: biochemical, Methylosinus trichosporium; conditions: oxaloacetate reduction, co-substrate NADH, pH 9.5, 30 °C
[5] = substrate: NC(=O)C1=CN([C@@H]2O[C@H](COP(=O)(O)OP(=O)(O)OC[C@H]3O[C@@H](n4cnc5c(N)ncnc54)[C@H](O)[C@@H]3O)[C@@H](O)[C@H]2O)C=CC1; assay type: biochemical, Methylotuvimicrobium alcaliphilum; conditions: oxaloacetate reduction, co-substrate oxaloacetate, pH 10, 30 °C, varied: cofactor
[6] = substrate: NC(=O)c1ccc[n+]([C@@H]2O[C@H](COP(=O)(O)OP(=O)(O)OC[C@H]3O[C@@H](n4cnc5c(N)ncnc54)[C@H](O)[C@@H]3O)[C@@H](O)[C@H]2O)c1; assay type: biochemical, Methylotuvimicrobium alcaliphilum; conditions: malate oxidation, co-substrate malate, pH 10, 30 °C, varied: cofactor
[7] = substrate: O=C(O)CC(=O)C(=O)O; assay type: biochemical, Methylotuvimicrobium alcaliphilum; conditions: oxaloacetate reduction, co-substrate NADH, pH 10, 30 °C

Protein	Km ([1]; pH 9.5, 30 °C, pH 9.5)	kcat ([1]; pH 9.5, 30 °C, pH 9.5)	Km [2]	Km [3]	Km [4]	kcat [4]	Km ([1]; pH 10, 30 °C, pH 10.0)	kcat ([1]; pH 10, 30 °C, pH 10.0)	Km [5]	Km [6]	Km [7]	kcat [7]
B1	1280 ± 170 µM	516 s⁻¹	37.6 ± 4.6 µM	330 ± 40 µM	59 ± 7 µM	1141 s⁻¹	–	–	–	–	–	–
B2	–	–	–	–	–	–	110 ± 10 µM	621 s⁻¹	25.2 ± 0.4 µM	450 ± 80 µM	340 ± 30 µM	870 s⁻¹
